Here are results for one molecule from paper PMC5383425, “Differential CLE peptide perception by plant receptors implicated from structural and functional analyses of TDIF-TDR interactions” (PLoS ONE, 2017).

Square brackets hold non-standard residues; d marks the D form. Ends that are not written are not given here. Hyp = O=C(O)[C@@H]1C[C@@H](O)CN1

Common to all, as to assay: ITC; 0.5–1 mM peptide titrated into 10–40 μM ecdTDR; 25°C; 10 mM sodium citrate, 100 mM NaCl, pH 5.5; fitted to one set of binding sites; MicroCal Auto-iTC200
Holding throughout (conditions): both partners purified

One assay concerns the target T1, ecdTDR W325A mutant (Arabidopsis thaliana, UniProt Q9FII5 30-642, single alanine substitution of W325).
T1 construct: TDR/PXY of A. thaliana, extracellular domain, residues 30-642; also called single alanine substitution of W325; source: High Five insect cells (baculovirus), secreted, purified as the wild type (Ni-NTA, size-exclusion chromatography)
T1 sequence (looked up): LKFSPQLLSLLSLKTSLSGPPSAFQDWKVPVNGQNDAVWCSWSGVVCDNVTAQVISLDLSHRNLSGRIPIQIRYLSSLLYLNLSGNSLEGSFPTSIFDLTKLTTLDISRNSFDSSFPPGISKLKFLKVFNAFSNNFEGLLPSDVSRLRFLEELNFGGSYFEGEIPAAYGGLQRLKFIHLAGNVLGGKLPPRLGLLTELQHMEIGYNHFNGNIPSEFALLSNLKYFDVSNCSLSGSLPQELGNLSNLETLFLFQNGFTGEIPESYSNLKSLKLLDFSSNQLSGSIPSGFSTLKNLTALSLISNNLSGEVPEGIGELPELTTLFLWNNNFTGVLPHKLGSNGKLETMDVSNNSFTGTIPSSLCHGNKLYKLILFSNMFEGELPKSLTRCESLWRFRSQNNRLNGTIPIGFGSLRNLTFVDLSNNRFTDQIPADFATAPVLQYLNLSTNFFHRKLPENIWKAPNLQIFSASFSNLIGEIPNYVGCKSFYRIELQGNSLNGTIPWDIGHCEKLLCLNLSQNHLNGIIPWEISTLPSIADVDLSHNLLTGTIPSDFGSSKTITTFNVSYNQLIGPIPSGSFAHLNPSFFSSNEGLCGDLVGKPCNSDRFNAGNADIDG

The target of a further assay is T2, ecdTDR F161A mutant (Arabidopsis thaliana, UniProt Q9FII5 30-642, F161A).
T2 construct: TDR/PXY of A. thaliana, extracellular domain, residues 30-642; source: High Five insect cells (baculovirus), secreted, purified as the wild type (Ni-NTA, size-exclusion chromatography)
T2 sequence (looked up): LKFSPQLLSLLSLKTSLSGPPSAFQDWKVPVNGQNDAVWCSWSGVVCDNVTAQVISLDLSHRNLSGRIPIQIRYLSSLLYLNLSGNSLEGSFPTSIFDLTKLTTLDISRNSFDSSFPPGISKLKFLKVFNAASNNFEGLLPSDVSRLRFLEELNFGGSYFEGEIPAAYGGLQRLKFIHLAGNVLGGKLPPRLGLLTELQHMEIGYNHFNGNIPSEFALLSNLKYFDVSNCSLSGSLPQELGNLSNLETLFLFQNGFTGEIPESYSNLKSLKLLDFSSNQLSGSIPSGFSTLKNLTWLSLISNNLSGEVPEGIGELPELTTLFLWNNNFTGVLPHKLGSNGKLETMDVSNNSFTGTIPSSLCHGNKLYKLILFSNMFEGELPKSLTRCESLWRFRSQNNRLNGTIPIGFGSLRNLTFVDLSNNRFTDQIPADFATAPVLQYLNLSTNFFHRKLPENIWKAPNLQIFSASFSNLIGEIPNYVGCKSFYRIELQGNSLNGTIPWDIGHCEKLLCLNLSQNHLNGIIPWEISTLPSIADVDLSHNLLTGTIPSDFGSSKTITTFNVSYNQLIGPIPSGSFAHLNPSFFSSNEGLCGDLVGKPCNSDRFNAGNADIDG

The next assay concerns the target T3, ecdTDR G186A mutant (Arabidopsis thaliana, UniProt Q9FII5 30-642, G186A).
T3 construct: TDR/PXY of A. thaliana, extracellular domain, residues 30-642; source: High Five insect cells (baculovirus), secreted, purified as the wild type (Ni-NTA, size-exclusion chromatography)
T3 sequence (looked up): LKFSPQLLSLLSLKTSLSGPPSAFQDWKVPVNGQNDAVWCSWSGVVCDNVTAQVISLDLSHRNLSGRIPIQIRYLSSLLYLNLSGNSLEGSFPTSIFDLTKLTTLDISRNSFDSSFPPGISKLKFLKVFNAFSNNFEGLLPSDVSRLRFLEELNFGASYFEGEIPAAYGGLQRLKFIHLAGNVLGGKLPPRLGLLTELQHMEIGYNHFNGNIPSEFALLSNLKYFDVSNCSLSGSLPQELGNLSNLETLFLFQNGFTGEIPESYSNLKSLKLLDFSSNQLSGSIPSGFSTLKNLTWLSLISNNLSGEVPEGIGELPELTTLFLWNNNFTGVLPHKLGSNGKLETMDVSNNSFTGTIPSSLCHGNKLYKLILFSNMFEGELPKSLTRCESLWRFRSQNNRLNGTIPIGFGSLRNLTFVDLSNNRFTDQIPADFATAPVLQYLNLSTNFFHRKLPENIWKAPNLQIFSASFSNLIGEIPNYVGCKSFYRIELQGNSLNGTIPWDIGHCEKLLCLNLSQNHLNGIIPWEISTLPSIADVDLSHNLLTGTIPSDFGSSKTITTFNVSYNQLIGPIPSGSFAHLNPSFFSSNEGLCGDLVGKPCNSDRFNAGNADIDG

The target of assay [1] is T4, ecdTDR mutant with all five N-terminal anchoring site-binding residues replaced by alanine (Arabidopsis thaliana, UniProt Q9FII5 30-642).
T4 chain: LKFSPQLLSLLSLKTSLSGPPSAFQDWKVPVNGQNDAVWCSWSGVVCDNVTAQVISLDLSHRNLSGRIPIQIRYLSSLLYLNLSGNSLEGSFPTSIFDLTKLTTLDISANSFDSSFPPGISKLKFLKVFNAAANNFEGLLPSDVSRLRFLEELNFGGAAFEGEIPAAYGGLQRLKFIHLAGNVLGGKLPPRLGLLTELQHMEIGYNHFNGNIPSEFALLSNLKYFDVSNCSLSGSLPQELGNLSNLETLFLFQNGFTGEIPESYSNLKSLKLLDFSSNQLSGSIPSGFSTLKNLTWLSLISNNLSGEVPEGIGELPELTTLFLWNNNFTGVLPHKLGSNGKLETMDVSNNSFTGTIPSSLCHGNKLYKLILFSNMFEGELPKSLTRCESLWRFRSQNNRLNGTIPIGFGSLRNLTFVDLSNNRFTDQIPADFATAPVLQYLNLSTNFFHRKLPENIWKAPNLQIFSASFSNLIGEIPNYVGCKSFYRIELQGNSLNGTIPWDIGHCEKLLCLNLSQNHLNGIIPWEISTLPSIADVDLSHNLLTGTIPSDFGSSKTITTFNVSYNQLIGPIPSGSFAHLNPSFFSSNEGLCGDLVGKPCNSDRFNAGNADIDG

B1: Tracheary Element Differentiation Inhibitory Factor (TDIF) peptide (peptide)
peptide: HEV[Hyp]SG[Hyp]NPISN
notes: TDIF, the 12-residue CLE peptide processed from CLE41 and CLE44 of A. thaliana; printed as HEV(Hyp)SG(Hyp)NPISN; numbers count on: the 12-residue peptide; CLE44 encodes the same peptide; also called wild type TDIF; wtTDIF; source: synthetic peptide (peptide 2.0)
For the molecule B1, the binding result with ecdTDR W325A mutant, in the assay with ecdTDR F161A mutant and with ecdTDR G186A mutant was “binds” throughout. The “fold decrease in affinity against wild-type ecdTDR” value in assay [1] was found to be 31.4 fold.
